Where a chain is given by its changes, count along the chain named.
B1: PRO-026: HuCAL anti-FGFR3 clone; VH-CDR3 SEQ ID NO:6, VL-CDR3 SEQ ID NO:15 (antibody, V domains shown)
VH: QVQLVQSGAEVKKPGASVKVSCKASGYTFTSYYMHWVRQAPGQGLEWMGWINPNSGGTNYAQKFQGRVTMTRDTSISTAYMELSSLRSEDTAVYYCARGYWYAYFTYINYGYFDNWGQGTLVTVSS
VL: DIALTQPASVSGSPGQSITISCTGTSSDVGGYNYVSWYQQHPGKAPKLMIYDVSNRPSGVSNRFSGSKSGNTASLTISGLQAEDEADYYCQSYDNNSDVVFGGGTKLTVLGQ
B2: PRO-055: HuCAL anti-FGFR3 clone; VH-CDR3 SEQ ID NO:9, VL-CDR3 SEQ ID NO:18 (antibody, V domains shown)
VH: QVQLVQSGAEVKKPGASVKVSCKASGYTFTSYYMHWVRQAPGQGLEWMGWINPNSGGTNYAQKFQGRVTMTRDTSISTAYMELSSLRSEDTAVYYCARSMNSTMYWYLRRVLFDHWGQGTLVTVSS
VL: B1 VL with N95M, N96Y, S97N, D98Y, V99I
B3: PRO-012: HuCAL anti-FGFR3 clone; VH-CDR3 SEQ ID NO:3, VL-CDR3 SEQ ID NO:12 (antibody, V domains shown)
VH: QVQLKESGPALVKPTQTLTLTCTFSGFSLSTSGVGVGWIRQPPGKALEWLALIDWDDDKYYSTSLKTRLTISKDTSKNQVVLTMTNMDPVDTATYYCARYHSWYEMGYYGSTVGYMFDYWGQGTLVTVSS
VL: DIELTQPPSVSVAPGQTARISCSGDALGDKYASWYQQKPGQAPVLVIYDDSDRPSGIPERFSGSNSGNTATLTISGTQAEDEADYYCQSYDFDFAVFGGGTKLTVLGQ
B4: PRO-054: HuCAL anti-FGFR3 clone; VH-CDR3 SEQ ID NO:8, VL-CDR3 SEQ ID NO:17 (antibody, V domains shown)
VH: QVQLVQSGAEVKKPGASVKVSCKASGYTFTSYYMHWVRQAPGQGLEWMGWINPNSGGTNYAQKFQGRVTMTRDTSISTAYMELSSLRSEDTAVYYCARNMAYTNYQYVNMPHFDYWGQGTLVTVSS
VL: B3 VL with F92Y, D93F, F94K, A95L
B5: PRO-002: HuCAL anti-FGFR3 clone; VH-CDR3 SEQ ID NO:2, VL-CDR3 SEQ ID NO:11 (antibody, V domains shown)
VH: QVQLVQSGAEVKKPGASVKVSCKASGYTFTSYYMHWVRQAPGQGLEWMGWINPNSGGTNYAQKFQGRVTMTRDTSISTAYMELSSLRSEDTAVYYCARDFLGYEFDYWGQGTLVTVSS
VL: DIELTQPPSVSVAPGQTARISCSGDALGDKYASWYQQKPGQAPVLVIYDDSDRPSGIPERFSGSNSGNTATLTISGTQAEDEADYYCQSYDYSADYVFGGGTKLTVLGQ
B6: PRO-029: HuCAL anti-FGFR3 clone; VH-CDR3 SEQ ID NO:7, VL-CDR3 SEQ ID NO:16 (antibody, V domains shown)
VH: QVQLVQSGAEVKKPGASVKVSCKASGYTFTSYYMHWVRQAPGQGLEWMGWINPNSGGTNYAQKFQGRVTMTRDTSISTAYMELSSLRSEDTAVYYCARTWQYSYFYYLDGGYYFDIWGQGTLVTVSS
VL: DIVLTQSPATLSLSPGERATLSCRASQSVSSSYLAWYQQKPGQAPRLLIYGASSRATGVPARFSGSGSGTDFTLTISSLEPEDFATYYCQQTNNAPVTFGQGTKVEIKRT

What follows are molecules tested against T1, FGFR3 (Homo sapiens, UniProt P22607) (assay: Affinity and Koff to FGFR3 measured by BIAcore).
Type: binding

T1 sequence (P22607 23-806): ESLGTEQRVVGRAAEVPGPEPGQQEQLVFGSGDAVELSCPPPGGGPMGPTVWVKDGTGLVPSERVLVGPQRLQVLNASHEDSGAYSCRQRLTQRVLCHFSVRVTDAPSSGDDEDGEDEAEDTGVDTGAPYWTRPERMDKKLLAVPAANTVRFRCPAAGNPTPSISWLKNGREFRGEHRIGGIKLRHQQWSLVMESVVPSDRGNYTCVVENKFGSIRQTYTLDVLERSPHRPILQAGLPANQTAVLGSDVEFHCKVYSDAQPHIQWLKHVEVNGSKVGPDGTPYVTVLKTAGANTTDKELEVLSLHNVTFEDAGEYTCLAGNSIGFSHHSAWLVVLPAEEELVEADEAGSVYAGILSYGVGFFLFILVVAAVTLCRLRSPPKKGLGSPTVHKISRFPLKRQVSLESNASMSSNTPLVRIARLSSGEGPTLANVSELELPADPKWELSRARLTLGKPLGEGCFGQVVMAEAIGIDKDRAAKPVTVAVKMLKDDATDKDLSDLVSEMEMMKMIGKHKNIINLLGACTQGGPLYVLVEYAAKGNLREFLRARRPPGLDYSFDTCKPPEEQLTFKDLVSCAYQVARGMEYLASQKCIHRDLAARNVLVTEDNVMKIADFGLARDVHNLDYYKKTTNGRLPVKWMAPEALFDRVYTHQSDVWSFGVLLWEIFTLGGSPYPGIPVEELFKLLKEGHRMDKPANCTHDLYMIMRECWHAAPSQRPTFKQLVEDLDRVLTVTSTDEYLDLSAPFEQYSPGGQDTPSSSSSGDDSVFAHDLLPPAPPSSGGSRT

| Kd | Molecule |
| --- | --- |
| 4 nM | B1 |
| 2.9 nM | B2 |
| 14 nM | B3 |
| 3.7 nM | B4 |
| 37 nM | B5 |
| 6 nM | B6 |

These molecules were tested against T1, FGFR3 (assay: FGFR3 domain specificity of binding).

| FGFR3 Domain Specificity | Molecule |
| --- | --- |
| 3c | B1 |
| 3c | B2 |
| 2 | B3 |
| 3c | B4 |
| 2 | B5 |
| 3c | B6 |
